B1: XTEN432-3xMMAE (protein)
chain: SAGSPTAEAAGCGTAEAAGTSESATPESGPGSEPATSGSETPGTSESATPESGPGTSTEPSEGSAPGTSESATPESGPGSPAGSPTSTEEGSPAGSPTSTEEGSPAGSPTSTEEGTSESATPESGPGTSTEPSEGSAPGTSESATPESGPGSEPATSGSETPGTSESATPESGPGSEPATSGSETPGTSESATPESGPGTSTEPSEGSAPTAEAAGCGTAEAAGSPAGSPTSTEEGTSESATPESGPGSEPATSGSETPGTSESATPESGPGSPAGSPTSTEEGSPAGSPTSTEEGTSTEPSEGSAPGTSESATPESGPGTSESATPESGPGTSESATPESGPGSEPATSGSETPGSEPATSGSETPGSPAGSPTSTEEGTSTEPSEGSAPGTSTEPSEGSAPGSEPATSGSETPTAEAAGCGTAEAASASR
B2: XTEN432-3xDM1 (protein)
chain: B1 chain

Biological target: HER2 (ErbB2, HER2/neu receptor) on HER2 expressing tumor cell lines (human (human tumor cell lines)) (UniProt P04626)
Test: cell-based or functional assay

| Binder | IC50, CellTiter-Glo cytotoxicity, BT474 cells [nM] | IC50, CellTiter-Glo cytotoxicity, HCC1954 cells [nM] | IC50, CellTiter-Glo cytotoxicity, NCI-N87 cells [nM] | IC50, CellTiter-Glo cytotoxicity, SK-BR-3 cells [nM] | IC50, CellTiter-Glo cytotoxicity, SK-OV-3 cells [nM] |
| --- | --- | --- | --- | --- | --- |
| B1 | > 300 | > 300 | > 1000 | > 300 | > 700 |
| B2 | > 1000 | > 360 | > 1000 | > 1000 | > 700 |

Reference: patent publication US20180125988A1, “TARGETED XTEN CONJUGATE COMPOSITIONS AND METHODS OF MAKING SAME” (AMUNIX OPERATING INC., priority 2014, published 2018)
